# Reference: patent US20220073650A1 (AFFIRIS, published 2022)
# No end group written: not given here.
# T1: peptide p7552 (human, not fully specified (residue 1))
# T1 peptide: CSSEIVLD
# T2: peptide p7564 (human, not fully specified (residue 1))
# T2 construct: also called 'cleaved' peptide
# T2 peptide: CPSDSSEIVLD
# T3: peptide p7562 (human, not fully specified (residue 1))
# T3 peptide: CDSSEIVLD
# T4: peptide p6773 (human, not fully specified (residue 18))
# T4 peptide: LPQPPPQAQPLLPQPQPC
# Tests used:
# peptide p7552 = target: T1, peptide p7552; assay: peptide ELISA
# peptide p7564 = target: T2, peptide p7564; assay: peptide ELISA
# peptide p7562 = target: T3, peptide p7562; assay: peptide ELISA
# [1] = target: T5, recombinant N-terminal Huntingtin fragment recHTT610 (human, UniProt P42858 1-610); assay: recHTT610 capture ELISA
# T5 construct: range 1-610; Used as extract of transiently transfected HEK293 cells, captured by anti-V5 antibody on the plate or spiked into human serum; also called recombinant HTT610; recombinant Huntingtin; not shown: two C-terminal V5 tags
# Procedure: Binding of antibodies to N-terminal fragment HTT610 was determined by a standard protein capture ELISA procedure using Maxisorb™ ELISA plates (Thermo; CatNr. 439454), coated with 50 μl of a 1:5000 rabbit anti V5 mAB (Sigma, CatNr. V8137), blocking with blocking buffer (PBS, 1% BSA, 0.1% Tween 20), capturing of recombinant Huntingtin from HEK cell extracts (100 ng/μl total protein) followed by incubation with several dilutions of mouse anti HTT sera (1:100; 1:300 and 1:900) or with mAB2166 as reference (diluted 1:2000; Millipore, Cat Nr. MAB2166) for 1 hour at RT. ELISA incubations, washing and detection procedures were performed according to standard procedures.
# peptide p6773 = target: T4, peptide p6773; assay: peptide ELISA
# T5 sequence (P42858 1-610): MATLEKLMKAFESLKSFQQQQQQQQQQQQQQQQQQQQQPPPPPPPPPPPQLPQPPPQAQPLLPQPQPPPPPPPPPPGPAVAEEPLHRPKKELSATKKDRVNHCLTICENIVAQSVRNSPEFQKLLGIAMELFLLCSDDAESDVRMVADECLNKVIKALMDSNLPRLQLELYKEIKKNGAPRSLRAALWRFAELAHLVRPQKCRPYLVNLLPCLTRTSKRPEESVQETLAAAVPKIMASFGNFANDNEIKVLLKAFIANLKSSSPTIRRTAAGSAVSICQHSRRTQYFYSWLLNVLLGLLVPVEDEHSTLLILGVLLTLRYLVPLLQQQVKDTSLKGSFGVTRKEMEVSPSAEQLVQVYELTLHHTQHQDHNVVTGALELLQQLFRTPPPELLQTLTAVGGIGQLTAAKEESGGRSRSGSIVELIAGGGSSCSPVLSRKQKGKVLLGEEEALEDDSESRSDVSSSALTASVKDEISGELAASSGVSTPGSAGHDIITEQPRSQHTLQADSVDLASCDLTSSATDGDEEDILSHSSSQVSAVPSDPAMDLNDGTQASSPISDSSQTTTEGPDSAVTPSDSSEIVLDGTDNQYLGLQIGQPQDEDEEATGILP
binding result (peptide p7552),binding result (peptide p7564),binding result (peptide p7562),signal to noise ratio (reHTT610-specific signal: HEK ctrl extracts) [1],binding result (peptide p6773),Binder
binds,binds,binds,,,"monoclonal antibody M1D1 (antibody, V domains shown, Typed as mouse IgM; hybridoma, immunogen p7564; also called mAB M1D1) VH: EVQLVESGGGLVQPKGSLKLSCAASGFTFNTYAMNWVRQAPGKGLEWVARIRSKSNNYATYYADSVKDRFTISRDDSQSMLYLQMNNLKTEDTAMYYCVRHGEYGNPWFAYWGQGTLVTVSA VL: not shown"
,,,≥ 4,binds,"monoclonal antibody PRR13 (antibody, V domains shown, Mouse IgG2a from hybridoma, immunogen p6773; also called mAB PRR13; PPR13) VH: EVQLQQSAPELVKPGASVKMSCKASGYSFTDFYMKWVKQSHGKGLEWIGDIDPKNGDTFYNQKFKGRATLTVDKSSSTAYMQLNSLTTEDSAVYYCATYYGYTMDYWGQGTSVTVSS VL: QIVLTQSPAIMSASLGERVTMTCTASSSVTSSYLHWYQQKPGSSPKLWIYSTSNLASGVPARFSGSGSGTSYSLTISSMEAEDAATYYCHQYRRPPRTFGGGTKLEIKR"
